Experimental findings from patent US20200113969A1 are described below.

Assay [1] concerns the target MMP-9 (commercial enzyme, Sigma) (UniProt P14780). Kind of assay: cell-based or functional assay.
Assay [2] has as its target MMP-9 present in HT29 extracellular media (human) (UniProt P14780). The assay is described as follows: cell-based or functional assay.

Chain of MMP-9 present in HT29 extracellular media (human) (P14780 20-707): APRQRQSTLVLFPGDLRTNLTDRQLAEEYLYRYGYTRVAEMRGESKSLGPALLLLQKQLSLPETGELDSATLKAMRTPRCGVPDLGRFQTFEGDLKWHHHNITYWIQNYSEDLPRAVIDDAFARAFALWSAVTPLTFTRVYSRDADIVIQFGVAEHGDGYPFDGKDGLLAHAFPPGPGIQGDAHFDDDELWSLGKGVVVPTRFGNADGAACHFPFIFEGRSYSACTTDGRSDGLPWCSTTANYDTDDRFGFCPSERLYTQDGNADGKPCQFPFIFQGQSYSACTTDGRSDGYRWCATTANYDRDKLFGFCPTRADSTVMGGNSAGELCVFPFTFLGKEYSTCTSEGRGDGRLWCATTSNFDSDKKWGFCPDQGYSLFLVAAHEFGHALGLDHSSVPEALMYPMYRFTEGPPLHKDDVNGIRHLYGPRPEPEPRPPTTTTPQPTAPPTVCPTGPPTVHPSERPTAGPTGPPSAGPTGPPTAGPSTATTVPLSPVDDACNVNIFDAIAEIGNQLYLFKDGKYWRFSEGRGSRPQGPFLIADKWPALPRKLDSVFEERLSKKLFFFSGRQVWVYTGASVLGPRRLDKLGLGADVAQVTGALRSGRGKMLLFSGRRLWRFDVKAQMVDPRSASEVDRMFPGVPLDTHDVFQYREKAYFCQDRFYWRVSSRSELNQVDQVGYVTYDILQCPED
Chain of MMP-9 (commercial enzyme, Sigma) (P14780 107-707 limits assumed): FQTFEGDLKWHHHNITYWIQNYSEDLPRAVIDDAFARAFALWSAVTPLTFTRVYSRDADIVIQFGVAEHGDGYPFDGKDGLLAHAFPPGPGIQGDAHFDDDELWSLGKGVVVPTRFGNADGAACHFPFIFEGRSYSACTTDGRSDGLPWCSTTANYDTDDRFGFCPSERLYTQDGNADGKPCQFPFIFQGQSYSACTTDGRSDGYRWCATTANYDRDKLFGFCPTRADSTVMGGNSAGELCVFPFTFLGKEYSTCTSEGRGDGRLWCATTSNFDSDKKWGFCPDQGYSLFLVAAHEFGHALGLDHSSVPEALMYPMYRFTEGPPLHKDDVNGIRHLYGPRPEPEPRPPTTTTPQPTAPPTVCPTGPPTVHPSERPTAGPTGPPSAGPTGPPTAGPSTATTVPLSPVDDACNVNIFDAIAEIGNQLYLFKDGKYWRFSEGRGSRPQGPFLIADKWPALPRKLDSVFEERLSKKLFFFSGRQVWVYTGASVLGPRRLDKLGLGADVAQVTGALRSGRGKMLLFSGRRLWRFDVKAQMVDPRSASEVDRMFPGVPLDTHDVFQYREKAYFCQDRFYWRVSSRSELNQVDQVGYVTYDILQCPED

In assay [1], “deflamin isolated from Lupinus albus seeds (from UniProt Q53HY0 31-531; F5B8W8 73-152)” came in with a gelatinolytic activity of MMP-9 on DQ-gelatin, deflamin at 100 µg/mL greater than 90%. Further, in assay [2], the EC50, MMP inhibition (gelatinolytic activity of HT29 media, DQ-gelatin) worked out at 10 µg/mL and the MIC, MMP inhibition (gelatinolytic activity of HT29 media, DQ-gelatin) is less than 5 µg/mL.

In assay [1], “fraction 4 of the size exclusion chromatography (Superdex 75) of the L. albus total protein extract” displayed an MMP-9 inhibitory activity, DQ gelatin assay of 100%.
